In patent publication US20240343811A1 (SHANDONG SIMCERE BIOPHARMACUTICAL, published 2024):
Substitutions are numbered along the chain they refer to.

T1: human CD16b (NA1), full length, on FlpinCHO cells (human, UniProt O75015 17-200)
T1 construct: also called FlpinCHO-human CD16b (NA1)
T1 chain: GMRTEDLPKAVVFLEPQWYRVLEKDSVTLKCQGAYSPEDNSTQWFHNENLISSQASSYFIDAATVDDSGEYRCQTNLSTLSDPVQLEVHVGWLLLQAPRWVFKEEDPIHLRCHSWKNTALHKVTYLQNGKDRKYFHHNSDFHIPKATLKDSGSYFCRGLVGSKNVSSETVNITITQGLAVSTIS

T2: human CD16b (NA2), full length, on FlpinCHO cells (human, UniProt O75015 17-200)
T2 construct: also called FlpinCHO-human CD16b (NA2)
T2 chain: T1 chain with R20S, N49S, D66N, V90I

T3: Human CD16b (NA1)-his (human)
T3 construct: entry holds ECD, linker, His tag and AVI tag
T3 chain: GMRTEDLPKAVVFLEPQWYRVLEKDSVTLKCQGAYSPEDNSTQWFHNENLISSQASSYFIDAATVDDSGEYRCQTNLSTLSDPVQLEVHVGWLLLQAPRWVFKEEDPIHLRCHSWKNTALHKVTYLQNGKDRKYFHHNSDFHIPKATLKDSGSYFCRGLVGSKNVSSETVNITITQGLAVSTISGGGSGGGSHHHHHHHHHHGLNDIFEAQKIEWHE

B1: VHH14 VHH-Fc antibody (Fc fusion)
chain: EVQLVESGGGLVQAGGSLRLSCAASGITFSSYAMAWYRQDPGKQRELVAAINRFGLTNYADSVKGRFTISRDNAKNTVYLEMTSLKPEDTAVYYCNTGGVYSHPNYYTGTYWGQGTQVTVSSEPKSSDKTHTCPPCPAPEFEGGPSVFLFPPKPKDTLMISRTPEVTCVVVAVSHEDPEVKFNWYVDGVEVHNAKTKPREEQYNSTYRVVSVLTVLHQDWLNGKEYKCKVSNKALPAPIEKTISKAKGQPREPQVYTLPPSREEMTKNQVSLTCLVKGFYPSDIAVEWESNGQPENNYKTTPPVLDSDGSFFLYSKLTVDKSRWQQGNVFSCSVMHEALHNHYTQKSLSLSPGK
B2: VHH13 VHH-Fc antibody (Fc fusion)
chain: B1 chain with L4V, A35G, D40A, N76S, E81Q, N105D
B3: VHH05 VHH-Fc antibody (Fc fusion)
chain: QVQLVESGGGLVQAGGSLRLSCVASSSTVTTYAVRWYRQAPGKQREWVAFISVDGNTNYPDSVKGRFIVSRDNAKNTVYLQMNSLKPEDTADYICRAGGQYWGQGTQVTVSSEPKSSDKTHTCPPCPAPEFEGGPSVFLFPPKPKDTLMISRTPEVTCVVVAVSHEDPEVKFNWYVDGVEVHNAKTKPREEQYNSTYRVVSVLTVLHQDWLNGKEYKCKVSNKALPAPIEKTISKAKGQPREPQVYTLPPSREEMTKNQVSLTCLVKGFYPSDIAVEWESNGQPENNYKTTPPVLDSDGSFFLYSKLTVDKSRWQQGNVFSCSVMHEALHNHYTQKSLSLSPGK

Experiments:
[1] = target: T4, human CD16a (158F), full length, on FlpinCHO cells (human, UniProt P08637 17-254); assay: FACS on FlpinCHO cells
In short: (§1)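 Trypsinised cells in PBS + 2% BSA were incubated on ice for 1 hour with antibody at a range of concentrations. After washes, mean fluorescence intensity was read by flow cytometry. EC50 values were derived by curve fitting of MFI.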

[2] = target: T5, human CD16a (158V), full length, on cells (human, UniProt P08637 17-254); assay: FACS on FlpinCHO cells
T5 construct: also used as target for the bought Jurkat-NFAT reporter line stably expressing human CD16a (158V); also called FlpinCHO-human CD16a (158V); FlpinCHO-CD16a (158V)
In short: as §1

[3] = target: T1, human CD16b (NA1), full length, on …; assay: FACS on FlpinCHO cells
In short: (§2)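 Trypsin-detached FlpinCHO cells expressing full-length CD16b were blocked in PBS+2% BSA and incubated on ice for 1 hour with antibody at varying concentrations. Binding read by flow cytometry as MFI; EC50 from curve fitting.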

[4] = target: T2, human CD16b (NA2), full length, on …; assay: FACS on FlpinCHO cells
In short: as §2

[5] = target: T6, CD16 on primary human NK cells (human, UniProt P08637 17-254); assay: FACS on human NK cells
T6 construct: whole, on cells; also called resting NK cells
In short: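 Freshly prepared human NK cells were resuspended at 2×10⁶ cells/ml in PBS+2% (w/w) BSA and incubated 1 h on ice with antibody at varying concentrations. After five PBS washes, flow cytometry gave mean fluorescence intensity, and EC50 was fitted from the MFI curve.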

[6] = target: T7, cynomolgus monkey CD16, full length, on FlpinCHO cells (cynomolgus monkey, UniProt Q8SPW2 17-254); assay: FACS on FlpinCHO cells
T7 construct: also called FlpinCHO-cyno CD16; Flipin CHO-cyno CD16
T7 sequence (Q8SPW2 other isoform, or with tags, fused parts or gaps limits assumed): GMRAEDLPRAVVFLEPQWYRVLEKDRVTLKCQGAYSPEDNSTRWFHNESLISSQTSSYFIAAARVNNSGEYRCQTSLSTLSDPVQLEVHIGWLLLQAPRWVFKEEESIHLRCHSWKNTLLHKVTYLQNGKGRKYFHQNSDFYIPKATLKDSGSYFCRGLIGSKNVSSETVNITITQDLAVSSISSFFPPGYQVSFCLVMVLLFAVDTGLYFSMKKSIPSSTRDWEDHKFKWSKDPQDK
Description: The required cells were scale-up cultured in a T-75 cell culture flask to the logarithmic growth phase. The medium was aspirated, and the cells were washed twice with a PBS buffer and then digested with trypsin. After the digestion was terminated, the cells were washed twice with the PBS buffer. The cells were counted, and then the cell pellet was resuspended with a [PBS+2% (w/w) BSA] blocking solution to 2×10⁶ cells/ml, and added to a 96-well FACS reaction plate at 50 μl/well. […] 50 μl/well of the antibody to be detected was added at different concentrations, and incubated on ice for 1 hour. […] The mixture was centrifuged and washed 5 times with PBS, and FACS (FACS Canto II, purchased from BD Company) was used for detection and result analysis. Data analysis was performed by software (CellQuest) to obtain the mean fluorescence intensity (MFI) of the cells. Then, software (GraphPad Prism8) was used for analysis, data fitting and EC50 value calculation.
Flipin CHO-cyno CD16 cells were subjected to FACS detection and data analysis according to the method of Example 3.1.

[7] = target: T5, human CD16a (158V), full length, on …; assay: cell-based or functional assay
[8] = target: T4, human CD16a (158F), full length, on …; assay: FACS, biotinylated antibody
[9] = target: T5, human CD16a (158V), full length, on …; assay: FACS, biotinylated antibody
Human CD16a (158F)-his = target: T8, Human CD16a (158F)-his (human); assay: SPR (Biacore), antibody captured on Protein A
T8 construct: entry holds ECD, AVI tag, linker and His tag
In short: (§3)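 Protein A–captured antibody was probed with CD16-his ECD in HBS-EP+ at 25 °C: five 2-fold dilutions from 200 nM, 240 s at 30 μL/min, dissociation up to 600 s. Glycine pH 1.5 regenerated the chip. Apparent KD came from a double-referenced 1:1 Langmuir fit.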

Human CD16a (158V)-his = target: T9, Human CD16a (158V)-his (human); assay: SPR (Biacore), antibody captured on Protein A
T9 construct: entry holds ECD, AVI tag, linker and His tag
In short: as §3

[10] = target: T4, human CD16a (158F), full length, on …; assay: FACS, biotinylated antibody, +10 mg/mL human immunoglobulin
[11] = target: T5, human CD16a (158V), full length, on …; assay: as above
[12] = target: T6, CD16 on primary human NK cells; assay: FACS on human NK cells, biotinylated antibody
Human CD16b (NA1)-his = target: T3, Human CD16b (NA1)-his; assay: SPR (Biacore), antibody captured on Protein A
In short: as §3

[13] = target: T6, CD16 on primary human NK cells; assay: FACS on human NK cells, biotinylated antibody, +10 mg/mL human immunoglobulin

| Binder | EC50 [1] | Maximum mean fluorescence intensity [1] | EC50 [2] | Maximum mean fluorescence intensity [2] | EC50 [3] | Maximum mean fluorescence intensity [3] | EC50 [5] | Maximum mean fluorescence intensity [5] | EC50, activation activity for Jurkat cell [7] | Maximum fluorescence value [7] | EC50 [8] | Maximum mean fluorescence intensity [8] | EC50 [9] | Maximum mean fluorescence intensity [9] | Kd (Human CD16a (158F)-his) | koff (Human CD16a (158F)-his) | kon (Human CD16a (158F)-his) | Kd (Human CD16a (158V)-his) | koff (Human CD16a (158V)-his) | kon (Human CD16a (158V)-his) | other results |
| --- | --- | --- | --- | --- | --- | --- | --- | --- | --- | --- | --- | --- | --- | --- | --- | --- | --- | --- | --- | --- | --- |
| B1 | 230 pM | 5750 | 270 pM | 6250 | 930 pM | 41900 | 170 pM | 2620 | 20 pM | 169000 | 270 pM | 5510 | 380 pM | 8180 | 25000 pM | 0.0296 s⁻¹ | 1.18e+06 M⁻¹ s⁻¹ | 19300 pM | 0.0602 s⁻¹ | 3.12e+06 M⁻¹ s⁻¹ | EC50 [4]: 1440 pM; Maximum mean fluorescence intensity [4]: 61400; EC50 [6]: 180 pM; Maximum mean fluorescence intensity [6]: 16400; EC50 [10]: 910 pM; Maximum mean fluorescence intensity [10]: 5070; EC50 [11]: 1100 pM; Maximum mean fluorescence intensity [11]: 7900 |
| B2 | 180 pM | 6020 | 240 pM | 6660 | 770 pM | 51400 | 150 pM | 2630 | 20 pM | 165000 | 160 pM | 6240 | 250 pM | 9620 | 22200 pM | 0.0192 s⁻¹ | 866000 M⁻¹ s⁻¹ | 19800 pM | 0.0362 s⁻¹ | 1.83e+06 M⁻¹ s⁻¹ | EC50 [4]: 1110 pM; Maximum mean fluorescence intensity [4]: 70200; EC50 [6]: 240 pM; Maximum mean fluorescence intensity [6]: 21400; EC50 [10]: 670 pM; Maximum mean fluorescence intensity [10]: 5830; EC50 [11]: 1090 pM; Maximum mean fluorescence intensity [11]: 9660 |
| B3 | 490 pM | 7320 | 530 pM | 8100 | 960 pM | 42500 | 620 pM | 2560 | 30 pM | 171000 | 330 pM | 8780 | 740 pM | 12400 | 8160 pM | 0.000499 s⁻¹ | 61200 M⁻¹ s⁻¹ | 3730 pM | 0.000321 s⁻¹ | 86100 M⁻¹ s⁻¹ | EC50 [12]: 1150 pM; Maximum mean fluorescence intensity [12]: 63200; Kd (Human CD16b (NA1)-his): 9280 pM; koff (Human CD16b (NA1)-his): 0.000958 s⁻¹; kon (Human CD16b (NA1)-his): 103000 M⁻¹ s⁻¹; EC50 [10]: 1510 pM; Maximum mean fluorescence intensity [10]: 10000; EC50 [11]: 1700 pM; Maximum mean fluorescence intensity [11]: 13300; EC50 [13]: 2940 pM; Maximum mean fluorescence intensity [13]: 72800 |
